Source: patent US20220339099A1 (published 2022)

Biological target: T1, human IL-1 type 1 receptor (IL-1R1) (human, UniProt P14778 18-336, limits assumed)
T1 construct: SPR reagent; also called IL-1RI; interleukin-1 type I receptor
T1 sequence (looked up): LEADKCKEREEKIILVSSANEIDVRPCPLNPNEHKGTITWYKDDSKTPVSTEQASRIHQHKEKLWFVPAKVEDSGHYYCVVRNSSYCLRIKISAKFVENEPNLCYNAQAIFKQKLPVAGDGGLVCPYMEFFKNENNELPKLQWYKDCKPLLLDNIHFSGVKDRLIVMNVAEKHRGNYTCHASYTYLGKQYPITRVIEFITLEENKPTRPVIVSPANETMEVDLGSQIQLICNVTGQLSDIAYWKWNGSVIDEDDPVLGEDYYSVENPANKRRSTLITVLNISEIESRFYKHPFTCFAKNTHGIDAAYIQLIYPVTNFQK
Assay: surface plasmon resonance

B1: rhIL-1α (recombinant human interleukin-1 alpha) (ligand, UniProt P01583 113-271, looked up)
chain: SAPFSFLSNVKYNFMRIIKYEFILNDALNQSIIRANDQYLTAAALHNLDEAVKFDMGAYKSSKDDAKITVILRISKTQLYVTAQDEDQPVLLKEMPEIPKTITGSETNLLFFWETHGTKNYFTSVAHPNLFIATKQDYWVCLAGGPPSITDFQILENQA
notes: also called rhlL-1α
Kd: 547 nM | koff: 0.00145 s⁻¹ | kon: 2650 M⁻¹ s⁻¹
